Broadly, the IC50 is the concentration needed to halve the response being measured. As usually defined, the Kd is the concentration at which binding is half-saturated. A higher Kd goes with lower affinity.

Assay [1] addresses HLA-A*02:01. Briefly: IEDB peptide-MHC binding, purified MHC/competitive/radioactivity; ≥ and ≤ were set here for values at or beyond the usual limits of such assays.
The target of the next assay is HLA-B*58:01. As to the kind of experiment: IEDB peptide-MHC binding, purified MHC/direct/fluorescence; filed as Kd, often an IC50 or EC50 that approximates it; ≥ and ≤ were set here for values at or beyond the usual limits of such assays.
Assay [2] concerns the target HLA-A*24:03. The assay is described as above.
For assay [3], the target named is HLA-B*15:01. The description is as above.
Assay [4] deals with HLA-A*26:01. The description is as above.
For assay [5], the target named is HLA-A*02:01. The description is as above.
The target in the next assay is HLA-B*44:02. The description is as above.
For assay [6], the target named is HLA-A*03:01. The assay is described as above.
Assay [7] deals with HLA-B*08:01. Described as above.
The target in another assay is HLA-A*69:01. Described as above.
The target in a further assay is HLA-B*40:01. The assay is described as above.
Another assay has as its target HLA-B*27:05. The description is as above.
For another assay, the target named is HLA-B*07:02. Described as above.
A further assay concerns the target HLA-A*30:01. The assay is described as above.
Another assay deals with HLA-B*35:01. As to the kind of experiment: IEDB peptide-MHC binding, purified MHC/competitive/fluorescence; filed as Kd, often an IC50 or EC50 that approximates it; ≥ and ≤ were set here for values at or beyond the usual limits of such assays.
The target of assay [8] is HLA-B*57:01. As to the kind of experiment: IEDB peptide-MHC binding, purified MHC/direct/fluorescence; filed as Kd, often an IC50 or EC50 that approximates it; ≥ and ≤ were set here for values at or beyond the usual limits of such assays. The note with it: source organism: West Nile virus.
A further assay deals with HLA-A*31:01. The assay is described as above. The note with it: source organism: Escherichia coli.
In another assay the target is HLA-A*01:01. The assay is described as above.
For the next assay, the target named is HLA-A*11:01. Described as above. The note with it: source organism: Escherichia coli.
Another assay deals with HLA-B*39:01. As to the kind of experiment: IEDB peptide-MHC binding, purified MHC/competitive/fluorescence; filed as Kd, often an IC50 or EC50 that approximates it; ≥ and ≤ were set here for values at or beyond the usual limits of such assays. The note with it: source organism: Vibrio antiquarius.
Assay [9] has as its target HLA-B*57:01. The description is as above. The note with it: source organism: Vibrio antiquarius.
For another assay, the target named is HLA-B*15:17. The description is as above. The note with it: source organism: Vibrio antiquarius.
The target of another assay is HLA-B*27:03. Described as above. The note with it: source organism: Vibrio antiquarius.
For a further assay, the target named is HLA-B*51:01. Described as above.
Assay [10] addresses HLA-A*24:03. The assay is described as above. The note with it: source organism: Vibrio antiquarius.
For a further assay, the target named is HLA-A*02:12. The assay is described as above. The note with it: source organism: Vibrio antiquarius.
Another assay addresses HLA-A*29:02. The assay is described as above. The note with it: source organism: Vibrio antiquarius.
For assay [11], the target named is HLA-B*15:01. Described as above.
Assay [12] concerns the target HLA-A*26:01. The description is as above. The note with it: source organism: Vibrio antiquarius.
In assay [13] the target is HLA-A*02:01. The description is as above. The note with it: source organism: Vibrio antiquarius.
The target in a further assay is HLA-A*23:01. Described as above.
For another assay, the target named is HLA-B*46:01. The assay is described as above. The note with it: source organism: Vibrio antiquarius.
Assay [14] addresses HLA-A*03:01. The assay is described as above. The note with it: source organism: Vibrio antiquarius.
The next assay addresses HLA-B*18:01. The assay is described as above. The note with it: source organism: Vibrio antiquarius.
A further assay concerns the target HLA-B*45:06. The assay is described as above. The note with it: source organism: Escherichia coli 536.
In a further assay the target is HLA-B*83:01. The description is as above. The note with it: source organism: Escherichia coli 536.
The target in assay [15] is HLA-B*08:01. The description is as above. The note with it: source organism: Escherichia coli 536.
Another assay has as its target HLA-B*15:42. Described as above. The note with it: source organism: Escherichia coli 536.
The mark [16] stands for this setting: source organism: Yersinia pestis Nepal516.
Where [17] appears, read: source organism: Yersinia pestis.
Setting [18] is: source organism: Salmonella enterica.
The mark [19] stands for this setting: source organism: Escherichia coli.
Where [20] appears, read: source organism: Vibrio antiquarius.
Setting [21] is: source organism: Escherichia coli 536.
Setting [22] is: source organism: Mycobacterium tuberculosis variant bovis.

Turning to VILGVLLLI, in the assay with HLA-A*02:01 [1] (source organism: Homo sapiens), the IC50 was 0.164 µM.
In the case of AFASLQDML, the Kd with HLA-B*58:01 (setting [16]) is at least 20 µM; in the assay with HLA-A*24:03 [2] (setting [17]), 1.28 µM; with HLA-B*15:01 [3] (setting [16]), at least 20 µM; with HLA-A*26:01 [4] (setting [16]), at least 20 µM; in the assay with HLA-A*02:01 [5] (setting [16]) it was at least 20 µM; in the assay with HLA-B*44:02 (setting [16]), at least 20 µM. Also, the Kd with HLA-A*03:01 [6] (setting [17]), with HLA-B*08:01 [7] (setting [16]), with HLA-A*69:01 (setting [16]), in the assay with HLA-B*40:01 (setting [16]), with HLA-B*27:05 (setting [16]) and with HLA-B*07:02 (setting [16]) was at least 20 µM throughout. Also, the equilibrium dissociation constant (Kd) with HLA-A*30:01 (setting [17]) was at least 20 µM.
RMYSPISIL: the IC50 with HLA-A*02:01 [1] (source organism: Human immunodeficiency virus 1) was found to be 0.056 µM.
Regarding LAALGDTAW, the Kd with HLA-B*35:01 (source organism: Japanese encephalitis virus) worked out at 0.0892 µM; with HLA-B*57:01 [8], 6.18 µM.
As to PTLDKVLEV, in the assay with HLA-A*02:01 [1] (source organism: Homo sapiens), the IC50 turned out to be 2 µM.
Consider ALMRWRHPR, for which the dissociation constant Kd with HLA-A*31:01 was 0.00544 µM; with HLA-B*58:01 (setting [18]), at least 20 µM; in the assay with HLA-A*01:01 (setting [18]) it was at least 20 µM; with HLA-A*24:03 [2] (setting [18]), at least 20 µM; with HLA-B*15:01 [3] (setting [18]) it was at least 20 µM; in the assay with HLA-A*26:01 [4] (setting [18]), at least 20 µM. Also, the Kd was 9.62 µM in the assay with HLA-A*02:01 [5] (setting [19]); at least 20 µM with HLA-B*44:02 (setting [18]); 0.0994 µM with HLA-A*03:01 [6] (setting [19]); 0.00936 µM with HLA-A*11:01; at least 20 µM with HLA-B*08:01 [7] (setting [18]); at least 20 µM in the assay with HLA-A*69:01 (setting [18]). In addition, the Kd with HLA-B*40:01 (setting [18]) was at least 20 µM; with HLA-B*27:05 (setting [19]), 0.237 µM; in the assay with HLA-B*07:02 (setting [18]), at least 20 µM; with HLA-A*30:01 (setting [19]), 0.00461 µM.
For the sequence LLDGTATLRL, the IC50 with HLA-A*02:01 [1] (source organism: Homo sapiens) was found to be 0.5 µM.
On to VTGCASLYV, for which the Kd with HLA-B*39:01, with HLA-B*57:01 [9], with HLA-B*15:17, with HLA-B*27:03, with HLA-B*51:01 (setting [20]) and with HLA-A*24:03 [10] was at least 20 µM in each case. Besides, the dissociation constant Kd was 0.0368 µM with HLA-A*02:12; at least 20 µM with HLA-A*29:02; at least 20 µM with HLA-B*15:01 [11] (setting [20]); at least 20 µM in the assay with HLA-A*26:01 [12]; 0.0463 µM with HLA-A*02:01 [13]; at least 20 µM in the assay with HLA-A*23:01 (setting [20]). The dissociation constant (Kd) with HLA-B*46:01, with HLA-A*03:01 [14] and with HLA-B*18:01 was at least 20 µM each time.
In turn, FFIQTDAAI gave a Kd with HLA-A*23:01 (source organism: Paramagnetospirillum magnetotacticum MS-1) of 0.0017 µM.
As to HPASRLFPF, the dissociation constant (Kd) was at least 5 µM with HLA-B*45:06; 0.0002 µM with HLA-B*35:01 (setting [21]); at least 20 µM with HLA-B*51:01 (setting [21]); 0.0534 µM with HLA-B*83:01; 0.0434 µM in the assay with HLA-B*08:01 [15]; at least 5 µM with HLA-B*15:42.
In turn, LYQKNIEHF yielded a Kd in the assay with HLA-A*23:01 (source organism: Vibrio vulnificus YJ016) of at most 0.0001 µM.
As for GLGQVPLIV, the IC50 with HLA-A*02:01 [1] (source organism: Homo sapiens) was 0.5 µM.
GLSRYVARLS: the 50% inhibitory concentration (IC50) in the assay with HLA-A*02:01 [1] (source organism: Hepatitis B virus) is 0.877 µM.
For MLAPSTLGY, the dissociation constant (Kd) in the assay with HLA-B*35:01 (source organism: Mycobacterium tuberculosis F11) is at most 0.0001 µM; with HLA-A*01:01 (setting [22]) it was 0.052 µM; in the assay with HLA-A*03:01 [6] (setting [22]), 0.0345 µM.
Regarding YSRMLYIEF, the Kd with HLA-B*45:06 was at least 5 µM; in the assay with HLA-B*15:01 [11] (setting [21]), 4.2 µM; with HLA-B*83:01, at least 5 µM; with HLA-B*08:01 [15] it was at least 20 µM; with HLA-B*15:42 it was at least 5 µM.
